Source: US20210388087A1 (Chugai, published 2021)

B1: dBBDu183H K64D / dBBDu072L (antibody, name in Kabat numbering, V domains shown)
VH: QVQLVESGGGLVQPGRSLRLSCAASGFTFSNAWMHWVRQAPGKGLEWVAQIKDKGNAYAAYYAPSVDGRFTISRDDSKNSIYLQMNSLKTEDTAVYYCHYVHYASASTVLPAFGVDAWGQGTTVTVSS
VL: DIVMTQSPLSLPVTPGEPASISCQASQELVHMNRNTYLHWYQQKPGQAPRLLIYKVSNRFPGVPDRFSGSGSGTDFTLKISRVEAEDVGVYYCAQGTSVPFTFGQGTKLEIK
notes: as m1, one VH change
B2: dBBDu183H K64T / dBBDu072L (antibody, name in Kabat numbering, V domains shown)
VH: QVQLVESGGGLVQPGRSLRLSCAASGFTFSNAWMHWVRQAPGKGLEWVAQIKDKGNAYAAYYAPSVTGRFTISRDDSKNSIYLQMNSLKTEDTAVYYCHYVHYASASTVLPAFGVDAWGQGTTVTVSS
VL: DIVMTQSPLSLPVTPGEPASISCQASQELVHMNRNTYLHWYQQKPGQAPRLLIYKVSNRFPGVPDRFSGSGSGTDFTLKISRVEAEDVGVYYCAQGTSVPFTFGQGTKLEIK
notes: as m1, one VH change
B3: dBBDu183H K64G / dBBDu072L (antibody, name in Kabat numbering, V domains shown)
VH: QVQLVESGGGLVQPGRSLRLSCAASGFTFSNAWMHWVRQAPGKGLEWVAQIKDKGNAYAAYYAPSVGGRFTISRDDSKNSIYLQMNSLKTEDTAVYYCHYVHYASASTVLPAFGVDAWGQGTTVTVSS
VL: DIVMTQSPLSLPVTPGEPASISCQASQELVHMNRNTYLHWYQQKPGQAPRLLIYKVSNRFPGVPDRFSGSGSGTDFTLKISRVEAEDVGVYYCAQGTSVPFTFGQGTKLEIK
notes: as m1, one VH change
B4: dBBDu183H K64F / dBBDu072L (antibody, name in Kabat numbering, V domains shown)
VH: QVQLVESGGGLVQPGRSLRLSCAASGFTFSNAWMHWVRQAPGKGLEWVAQIKDKGNAYAAYYAPSVFGRFTISRDDSKNSIYLQMNSLKTEDTAVYYCHYVHYASASTVLPAFGVDAWGQGTTVTVSS
VL: DIVMTQSPLSLPVTPGEPASISCQASQELVHMNRNTYLHWYQQKPGQAPRLLIYKVSNRFPGVPDRFSGSGSGTDFTLKISRVEAEDVGVYYCAQGTSVPFTFGQGTKLEIK
notes: as m1, one VH change
B5: dBBDu183H L100dK / dBBDu072L (antibody, name in Kabat numbering, V domains shown)
VH: QVQLVESGGGLVQPGRSLRLSCAASGFTFSNAWMHWVRQAPGKGLEWVAQIKDKGNAYAAYYAPSVKGRFTISRDDSKNSIYLQMNSLKTEDTAVYYCHYVHYASASTVKPAFGVDAWGQGTTVTVSS
VL: DIVMTQSPLSLPVTPGEPASISCQASQELVHMNRNTYLHWYQQKPGQAPRLLIYKVSNRFPGVPDRFSGSGSGTDFTLKISRVEAEDVGVYYCAQGTSVPFTFGQGTKLEIK
notes: as m1, one VH change
B6: dBBDu183H L100dE / dBBDu072L (antibody, name in Kabat numbering, V domains shown)
VH: QVQLVESGGGLVQPGRSLRLSCAASGFTFSNAWMHWVRQAPGKGLEWVAQIKDKGNAYAAYYAPSVKGRFTISRDDSKNSIYLQMNSLKTEDTAVYYCHYVHYASASTVEPAFGVDAWGQGTTVTVSS
VL: DIVMTQSPLSLPVTPGEPASISCQASQELVHMNRNTYLHWYQQKPGQAPRLLIYKVSNRFPGVPDRFSGSGSGTDFTLKISRVEAEDVGVYYCAQGTSVPFTFGQGTKLEIK
notes: as m1, one VH change
B7: dBBDu183H K64Q / dBBDu072L (antibody, name in Kabat numbering, V domains shown)
VH: QVQLVESGGGLVQPGRSLRLSCAASGFTFSNAWMHWVRQAPGKGLEWVAQIKDKGNAYAAYYAPSVQGRFTISRDDSKNSIYLQMNSLKTEDTAVYYCHYVHYASASTVLPAFGVDAWGQGTTVTVSS
VL: DIVMTQSPLSLPVTPGEPASISCQASQELVHMNRNTYLHWYQQKPGQAPRLLIYKVSNRFPGVPDRFSGSGSGTDFTLKISRVEAEDVGVYYCAQGTSVPFTFGQGTKLEIK
notes: as m1, one VH change
B8: dBBDu183H K64R / dBBDu072L (antibody, name in Kabat numbering, V domains shown)
VH: QVQLVESGGGLVQPGRSLRLSCAASGFTFSNAWMHWVRQAPGKGLEWVAQIKDKGNAYAAYYAPSVRGRFTISRDDSKNSIYLQMNSLKTEDTAVYYCHYVHYASASTVLPAFGVDAWGQGTTVTVSS
VL: DIVMTQSPLSLPVTPGEPASISCQASQELVHMNRNTYLHWYQQKPGQAPRLLIYKVSNRFPGVPDRFSGSGSGTDFTLKISRVEAEDVGVYYCAQGTSVPFTFGQGTKLEIK
notes: as m1, one VH change
B9: dBBDu183H K64W / dBBDu072L (antibody, name in Kabat numbering, V domains shown)
VH: QVQLVESGGGLVQPGRSLRLSCAASGFTFSNAWMHWVRQAPGKGLEWVAQIKDKGNAYAAYYAPSVWGRFTISRDDSKNSIYLQMNSLKTEDTAVYYCHYVHYASASTVLPAFGVDAWGQGTTVTVSS
VL: DIVMTQSPLSLPVTPGEPASISCQASQELVHMNRNTYLHWYQQKPGQAPRLLIYKVSNRFPGVPDRFSGSGSGTDFTLKISRVEAEDVGVYYCAQGTSVPFTFGQGTKLEIK
notes: as m1, one VH change
B10: dBBDu183H K64S / dBBDu072L (antibody, name in Kabat numbering, V domains shown)
VH: QVQLVESGGGLVQPGRSLRLSCAASGFTFSNAWMHWVRQAPGKGLEWVAQIKDKGNAYAAYYAPSVSGRFTISRDDSKNSIYLQMNSLKTEDTAVYYCHYVHYASASTVLPAFGVDAWGQGTTVTVSS
VL: DIVMTQSPLSLPVTPGEPASISCQASQELVHMNRNTYLHWYQQKPGQAPRLLIYKVSNRFPGVPDRFSGSGSGTDFTLKISRVEAEDVGVYYCAQGTSVPFTFGQGTKLEIK
notes: as m1, one VH change
B11: dBBDu183H K64N / dBBDu072L (antibody, name in Kabat numbering, V domains shown)
VH: QVQLVESGGGLVQPGRSLRLSCAASGFTFSNAWMHWVRQAPGKGLEWVAQIKDKGNAYAAYYAPSVNGRFTISRDDSKNSIYLQMNSLKTEDTAVYYCHYVHYASASTVLPAFGVDAWGQGTTVTVSS
VL: DIVMTQSPLSLPVTPGEPASISCQASQELVHMNRNTYLHWYQQKPGQAPRLLIYKVSNRFPGVPDRFSGSGSGTDFTLKISRVEAEDVGVYYCAQGTSVPFTFGQGTKLEIK
notes: as m1, one VH change
B12: dBBDu183H K64Y / dBBDu072L (antibody, name in Kabat numbering, V domains shown)
VH: QVQLVESGGGLVQPGRSLRLSCAASGFTFSNAWMHWVRQAPGKGLEWVAQIKDKGNAYAAYYAPSVYGRFTISRDDSKNSIYLQMNSLKTEDTAVYYCHYVHYASASTVLPAFGVDAWGQGTTVTVSS
VL: DIVMTQSPLSLPVTPGEPASISCQASQELVHMNRNTYLHWYQQKPGQAPRLLIYKVSNRFPGVPDRFSGSGSGTDFTLKISRVEAEDVGVYYCAQGTSVPFTFGQGTKLEIK
notes: as m1, one VH change
B13: dBBDu183H K64V / dBBDu072L (antibody, name in Kabat numbering, V domains shown)
VH: QVQLVESGGGLVQPGRSLRLSCAASGFTFSNAWMHWVRQAPGKGLEWVAQIKDKGNAYAAYYAPSVVGRFTISRDDSKNSIYLQMNSLKTEDTAVYYCHYVHYASASTVLPAFGVDAWGQGTTVTVSS
VL: DIVMTQSPLSLPVTPGEPASISCQASQELVHMNRNTYLHWYQQKPGQAPRLLIYKVSNRFPGVPDRFSGSGSGTDFTLKISRVEAEDVGVYYCAQGTSVPFTFGQGTKLEIK
notes: as m1, one VH change
B14: dBBDu183H K64H / dBBDu072L (antibody, name in Kabat numbering, V domains shown)
VH: QVQLVESGGGLVQPGRSLRLSCAASGFTFSNAWMHWVRQAPGKGLEWVAQIKDKGNAYAAYYAPSVHGRFTISRDDSKNSIYLQMNSLKTEDTAVYYCHYVHYASASTVLPAFGVDAWGQGTTVTVSS
VL: DIVMTQSPLSLPVTPGEPASISCQASQELVHMNRNTYLHWYQQKPGQAPRLLIYKVSNRFPGVPDRFSGSGSGTDFTLKISRVEAEDVGVYYCAQGTSVPFTFGQGTKLEIK
notes: as m1, one VH change

target: T1, Human CD137 ECD (human); assay: SPR, vs parent H183/L072
T1 construct: also called 4-1BB
T1 sequence (chain, as listed by the source limits assumed): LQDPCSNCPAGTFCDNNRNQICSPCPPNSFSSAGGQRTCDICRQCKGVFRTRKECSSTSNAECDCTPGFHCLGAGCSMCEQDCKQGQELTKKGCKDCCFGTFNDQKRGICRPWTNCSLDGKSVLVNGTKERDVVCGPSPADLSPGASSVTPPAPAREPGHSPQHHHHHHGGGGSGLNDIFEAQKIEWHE

B1 and B2 are the same in “fold change of affinity” value: 1.1 fold for the first, 1.1 fold for the second.

B3 and B4 are the same in “fold change of affinity” value: 1.1 fold for the first, 1.1 fold for the second.

Compared with B5, B6 is lower in “fold change of affinity” value: 0.7 fold for the first, 0.4 fold for the second.

B7 and B8 are the same in “fold change of affinity” value: 1.1 fold for the first, 1.1 fold for the second.

B9 and B10 are the same in “fold change of affinity” value: 1.2 fold for the first, 1.2 fold for the second.

First: B11
Second: B12
The “fold change of affinity” value of the first is lower: 1 fold for the first, 1.1 fold for the second.

Going from B13 to B14, the “fold change of affinity” value rises from 1 fold to 1.1 fold.
